Measurements: patent US20260242735A1 (UNIVERSIT T BASEL, published 2026)

Columns and labels:
Assay in all cases: BLI Octet, IgG captured on AHC, CD33 analyte;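 further: CD33 variants and wild type run as analyte at 5, 50 and 500 nM, 700 s association then 1200 s dissociation, buffer-only reference subtracted, global 1:1 fit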
[1] = target: human CD33 extracellular region Y50K (human, UniProt P20138 18-259)
Description: (§1) Human CD33 wt and variants, were used as analyte at 3 different concentrations (500, 50 and 5 nM). Association of the analyte to the antibodies was monitored for 700 s and dissociation of the analyte from the antibodies was monitored for 1200 s. Reference subtraction was performed against buffer only wells. AHC tips were regenerated using 10 mM Glycine-HCl pH 1.7. Data were analyzed with Octet Data Analysis software HT 12.0. Data were fitted to a 1:1 binding model. Kinetic rates ka and kd and response signal were globally fitted.

[2] = target: human CD33 extracellular region W22T (human, UniProt P20138 18-259)
Description: as §1

[3] = target: human CD33 extracellular region N100Q (human, UniProt P20138 18-259)
Chain of human CD33 extracellular region N100Q (P20138 other isoform, or with tags, fused parts or gaps N100Q N100Q): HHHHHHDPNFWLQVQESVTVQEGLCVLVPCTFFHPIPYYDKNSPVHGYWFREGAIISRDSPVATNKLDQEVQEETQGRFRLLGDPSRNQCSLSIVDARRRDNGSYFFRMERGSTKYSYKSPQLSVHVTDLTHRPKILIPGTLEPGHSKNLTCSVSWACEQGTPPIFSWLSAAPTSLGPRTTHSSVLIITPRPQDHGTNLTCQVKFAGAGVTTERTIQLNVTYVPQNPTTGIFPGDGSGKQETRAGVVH
Description: as §1

[4] = target: human CD33 extracellular region F21I (human, UniProt P20138 22-259)
Chain of human CD33 extracellular region F21I (P20138 other isoform, or with tags, fused parts or gaps F21I F21I): as the sequence (P20138 other isoform, or with tags, fused parts or gaps N100Q N100Q) above, with F10I, Q89N counted along it
Description: as §1

[5] = target: human CD33 extracellular region Y50H (human, UniProt P20138 18-259)
Chain of human CD33 extracellular region Y50H (P20138 other isoform, or with tags, fused parts or gaps Y50H Y50H): as the sequence (P20138 other isoform, or with tags, fused parts or gaps N100Q N100Q) above, with Y39H, Q89N counted along it
Description: as §1

[6] = target: human CD33 extracellular region Y50D (human, UniProt P20138 18-259)
Chain of human CD33 extracellular region Y50D (P20138 other isoform, or with tags, fused parts or gaps Y50D Y50D): as the sequence (P20138 other isoform, or with tags, fused parts or gaps N100Q N100Q) above, with Y39D, Q89N counted along it
Description: as §1

[7] = target: human CD33 extracellular region Y50S (human, UniProt P20138 18-259)
Chain of human CD33 extracellular region Y50S (P20138 other isoform, or with tags, fused parts or gaps Y50S Y50S): as the sequence (P20138 other isoform, or with tags, fused parts or gaps N100Q N100Q) above, with Y39S, Q89N counted along it
Description: as §1

[8] = target: human CD33 extracellular region P48S (human, UniProt P20138 18-259)
Chain of human CD33 extracellular region P48S (P20138 other isoform, or with tags, fused parts or gaps P48S P48S): as the sequence (P20138 other isoform, or with tags, fused parts or gaps N100Q N100Q) above, with P37S, Q89N counted along it
Description: as §1

[9] = target: human CD33 extracellular region R119A (human, UniProt P20138 18-259)
Description: as §1

[10] = target: human CD33 extracellular region F44S (human, UniProt P20138 18-259)
Chain of human CD33 extracellular region F44S (P20138 other isoform, or with tags, fused parts or gaps F44S F44S): as the sequence (P20138 other isoform, or with tags, fused parts or gaps N100Q N100Q) above, with F33S, Q89N counted along it
Description: as §1

[11] = target: human CD33 extracellular region Y50H_Y49H (human, UniProt P20138 18-259)
Description: as §1

[12] = target: human CD33 extracellular region F44P (human, UniProt P20138 18-259)
Chain of human CD33 extracellular region F44P (P20138 other isoform, or with tags, fused parts or gaps F44P F44P): as the sequence (P20138 other isoform, or with tags, fused parts or gaps N100Q N100Q) above, with F33P, Q89N counted along it
Description: as §1

[13] = target: human CD33 extracellular region Q24R (human, UniProt P20138 18-259)
Chain of human CD33 extracellular region Q24R (P20138 other isoform, or with tags, fused parts or gaps Q24R Q24R): as the sequence (P20138 other isoform, or with tags, fused parts or gaps N100Q N100Q) above, with Q13R, Q89N counted along it
Description: as §1

[14] = target: human CD33 extracellular region P48F (human, UniProt P20138 18-259)
Chain of human CD33 extracellular region P48F (P20138 other isoform, or with tags, fused parts or gaps P48F P48F): as the sequence (P20138 other isoform, or with tags, fused parts or gaps N100Q N100Q) above, with P37F, Q89N counted along it
Description: as §1

[15] = target: human CD33 extracellular region N20K (human, UniProt P20138 21-259)
Description: as §1

[16] = target: human CD33 extracellular region Y50E (human, UniProt P20138 18-259)
Chain of human CD33 extracellular region Y50E (P20138 other isoform, or with tags, fused parts or gaps Y50E Y50E): as the sequence (P20138 other isoform, or with tags, fused parts or gaps N100Q N100Q) above, with Y39E, Q89N counted along it
Description: as §1

[17] = target: human CD33 extracellular region F43S (human, UniProt P20138 18-259)
Chain of human CD33 extracellular region F43S (P20138 other isoform, or with tags, fused parts or gaps F43S F43S): as the sequence (P20138 other isoform, or with tags, fused parts or gaps N100Q N100Q) above, with F32S, Q89N counted along it
Description: as §1

[18] = target: human CD33 extracellular region F21M (human, UniProt P20138 22-259)
Chain of human CD33 extracellular region F21M (P20138 other isoform, or with tags, fused parts or gaps F21M F21M): as the sequence (P20138 other isoform, or with tags, fused parts or gaps N100Q N100Q) above, with F10M, Q89N counted along it
Description: as §1

[19] = target: human CD33 extracellular region P48D (human, UniProt P20138 18-259)
Chain of human CD33 extracellular region P48D (P20138 other isoform, or with tags, fused parts or gaps P48D P48D): as the sequence (P20138 other isoform, or with tags, fused parts or gaps N100Q N100Q) above, with P37D, Q89N counted along it
Description: as §1

[20] = target: human CD33 extracellular region N20G (human, UniProt P20138 21-259)
Chain of human CD33 extracellular region N20G (P20138 other isoform, or with tags, fused parts or gaps N20G N20G): as the sequence (P20138 other isoform, or with tags, fused parts or gaps N100Q N100Q) above, with N9G, Q89N counted along it
Description: as §1

[21] = target: human CD33 extracellular region N20S (human, UniProt P20138 21-259)
Description: as §1

[22] = target: T1, human CD33 extracellular region, wild type (human, UniProt P20138 18-259)
T1 construct: also called WT; CD33 wt
Description: as §1

[23] = target: human CD33 extracellular region F21S_W22R (human, UniProt P20138 23-259)
Description: as §1

[24] = target: human CD33 extracellular region W22H (human, UniProt P20138 18-259)
Description: as §1

[25] = target: human CD33 extracellular region N20V (human, UniProt P20138 21-259)
Chain of human CD33 extracellular region N20V (P20138 other isoform, or with tags, fused parts or gaps N20V N20V): as the sequence (P20138 other isoform, or with tags, fused parts or gaps N100Q N100Q) above, with N9V, Q89N counted along it
Description: as §1

[26] = target: human CD33 extracellular region H45Y (human, UniProt P20138 18-259)
Description: as §1

[27] = target: human CD33 extracellular region W22K (human, UniProt P20138 18-259)
Description: as §1

[28] = target: human CD33 extracellular region Y50R (human, UniProt P20138 18-259)
Chain of human CD33 extracellular region Y50R (P20138 other isoform, or with tags, fused parts or gaps Y50R Y50R): as the sequence (P20138 other isoform, or with tags, fused parts or gaps N100Q N100Q) above, with Y39R, Q89N counted along it
Description: as §1

[29] = target: human CD33 extracellular region W22D (human, UniProt P20138 18-259)
Description: as §1

[30] = target: human CD33 extracellular region N20E (human, UniProt P20138 21-259)
Chain of human CD33 extracellular region N20E (P20138 other isoform, or with tags, fused parts or gaps N20E N20E): as the sequence (P20138 other isoform, or with tags, fused parts or gaps N100Q N100Q) above, with N9E, Q89N counted along it
Description: as §1

[31] = target: human CD33 extracellular region Y50L (human, UniProt P20138 18-259)
Description: as §1

Chain of human CD33 extracellular region W22T (P20138 other isoform, or with tags, fused parts or gaps W22T W22T): as the sequence (P20138 other isoform, or with tags, fused parts or gaps N100Q N100Q) above, with W11T, Q89N counted along it

| Binder | % WT binding [1] | % WT binding [2] | % WT binding [3] | % WT binding [4] | % WT binding [5] | % WT binding [6] | % WT binding [7] | % WT binding [8] | % WT binding [9] | % WT binding [10] | % WT binding [11] | % WT binding [12] | % WT binding [13] | % WT binding [14] | % WT binding [15] | % WT binding [16] | % WT binding [17] | % WT binding [18] | % WT binding [19] | % WT binding [20] | other results |
| --- | --- | --- | --- | --- | --- | --- | --- | --- | --- | --- | --- | --- | --- | --- | --- | --- | --- | --- | --- | --- | --- |
| Refmab #1 (antibody, human IgG1, V domains shown, also called hP67.6; Absolute Antibody Cat. No. Ab00283-10.0) VH: EVQLVQSGAEVKKPGSSVKVSCKASGYTITDSNIHWVRQAPGQSLEWIGYIYPYNGGTDYNQKFKNRATLTVDNPTNTAYMELSSLRSEDTAFYYCVNGNPWLAYWGQGTLVTVSS VL: DIQLTQSPSTLSASVGDRVTITCRASESLDNYGIRFLTWFQQKPGKAPKLLMYAASNQGSGVPSRFSGSGSGTEFTLTISSLQPDDFATYYCQQTKEVPWSFGQGTKVEVK | 101% | 15% | 107% | 0% | 104% | 71.5% | 75.5% | 79.5% | 121% | 63.9% | 76.4% | 0% | 67.9% | 76.2% | 0% | 101% | 104% | 0% | 71.9% | 0% | % WT binding [21]: 37.8%; % WT binding [22]: 100%; % WT binding [23]: 0%; % WT binding [24]: 106%; % WT binding [25]: 18.6%; % WT binding [26]: 55%; % WT binding [27]: 0%; % WT binding [28]: 73.3%; % WT binding [29]: 0%; % WT binding [30]: 3.46%; % WT binding [31]: 76.1% |
| Refmab #3 (antibody, human IgG1, V domains shown) VH: QVQLVQSGAEVKKPGSSVKVSCKASGYTFTDYNMHWVRQAPGQGLEWIGYIYPYNGGTGYNQKFKSKATITADESTNTAYMELSSLRSEDTAVYYCARGRPAMDYWGQGTLVTVSS VL: DIQMTQSPSSLSASVGDRVTITCRASESVDNYGISFMNWFQQKPGKAPKLLIYAASNQGSGVPSRFSGSGSGTDFTLTISSLQPDDFATYYCQQSKEVPWTFGQGTKVEIK | 122% | 3.39% | 124% | 0% | 111% | 71% | 70.9% | 74% | 118% | 39% | 84.4% | 0% | 88.4% | 74.3% | 0% | 120% | 64.8% | 0% | 76.4% | 0% | % WT binding [21]: 34.4%; % WT binding [22]: 100%; % WT binding [23]: 0%; % WT binding [24]: 55%; % WT binding [25]: 6.34%; % WT binding [26]: 35.1%; % WT binding [27]: 0%; % WT binding [28]: 70.5%; % WT binding [29]: 0%; % WT binding [30]: 6.04%; % WT binding [31]: 74.4% |
| Refmab #4 (antibody, human IgG1, V domains shown) VH: QVQLVQSGAEVKKPGESVKVSCKASGYTFTNYGMNWVKQAPGQGLEWMGWINTYTGEPTYADKFQGRVTMTTDTSTSTAYMEIRNLGGDDTAVYYCARWSWSDGYYVYFDYWGQGTSVTVSS VL: DIVMTQSPDSLTVSLGERTTINCKSSQSVLDSSTNKNSLAWYQQKPGQPPKLLLSWASTRESGIPDRFSGSGSGTDFTLTIDSPQPEDSATYYCQQSAHFPITFGQGTRLEIK | 0% | 87.9% | 114% | 84.2% | 28% | 0% | 22.6% | 21.8% | 95% | 84.6% | 0% | 87.4% | 102% | 9.11% | 102% | 16% | 80% | 80% | 5.75% | 115% | % WT binding [21]: 84.1%; % WT binding [22]: 100%; % WT binding [23]: 110%; % WT binding [24]: 112%; % WT binding [25]: 96.5%; % WT binding [26]: 69.3%; % WT binding [27]: 113%; % WT binding [28]: 0%; % WT binding [29]: 104%; % WT binding [30]: 100%; % WT binding [31]: 25.3% |
